Laboratory results reported in patent US20200231652A1.

B1: FC5-Fc-T22d35 (Fc fusion)
chain: EVQLQASGGGLVQAGGSLRLSCAASGFKITHYTMGWFRQAPGKEREFVSRITWGGDNTFYSNSVKGRFTISRDNAKNTVYLQMNSLKPEDTADYYCAAGSTSTATPLRVDYWGKGTQVTVSSASEPRGPTIKPCPPCKCPAPNLLGGPSVFIFPPKIKDVLMISLSPIVTCVVVDVSEDDPDVQISWFVNNVEVHTAQTQTHREDYNSTLRVVSALPIQHQDWMSGKEFKCKVNNKDLPAPIERTISKPKGSVRAPQVYVLPPPEEEMTKKQVTLTCMVTDFMPEDIYVEWTNNGKTELNYKNTEPVLDSDGSYFMYSKLRVEKKNWVERNSYSCSVVHEGLHNHHTTKSFSRTPGTGIPPHVQKSVNNDMIVTDNNGAVKFPQLCKFCDVRFSTCDNQKSCMSNCSITSICEKPQEVCVAVWRKNDENITLETVCHDPKLPYHDFILEDAASPKCIMKEKKKPGETFFMCSCSSDECNDNIIFSEEYNTSNPDIPPHVQKSVNNDMIVTDNNGAVKFPQLCKFCDVRFSTCDNQKSCMSNCSITSICEKPQEVCVAVWRKNDENITLETVCHDPKLPYHDFILEDAASPKCIMKEKKKPGETFFMCSCSSDECNDNIIFSEEYNTSNPD
B2: FC5-Fc-T2m (Fc fusion)
chain: EVQLQASGGGLVQAGGSLRLSCAASGFKITHYTMGWFRQAPGKEREFVSRITWGGDNTFYSNSVKGRFTISRDNAKNTVYLQMNSLKPEDTADYYCAAGSTSTATPLRVDYWGKGTQVTVSSASEPRGPTIKPCPPCKCPAPNLLGGPSVFIFPPKIKDVLMISLSPIVTCVVVDVSEDDPDVQISWFVNNVEVHTAQTQTHREDYNSTLRVVSALPIQHQDWMSGKEFKCKVNNKDLPAPIERTISKPKGSVRAPQVYVLPPPEEEMTKKQVTLTCMVTDFMPEDIYVEWTNNGKTELNYKNTEPVLDSDGSYFMYSKLRVEKKNWVERNSYSCSVVHEGLHNHHTTKSFSRTPGTGIPPHVQKSVNNDMIVTDNNGAVKFPQLCKFCDVRFSTCDNQKSCMSNCSITSICEKPQEVCVAVWRKNDENITLETVCHDPKLPYHDFILEDAASPKCIMKEKKKPGETFFMCSCSSDECNDNIIFSEEYNTSNPD
B3: hIgG2Fc-CCCC-T22d35 fusion (Fc fusion)
chain: ERKCCVECPPCPAPPVAGPSVFLFPPKPKDTLMISRTPEVTCVVVDVSHEDPEVQFNWYVDGVEVHNAKTKPREEQFNSTFRVVSVLTVVHQDWLNGKEYKCKVSNKGLPAPIEKTISKTKGQPREPQVYTLPPSREEMTKNQVSLTCLVKGFYPSDISVEWESNGQPENNYKTTPPMLDSDGSFFLYSKLTVDKSRWQQGNVFSCSVMHEALHNHYTQKSLSLSPGKIPPHVQKSVNNDMIVTDNNGAVKFPQLCKFCDVRFSTCDNQKSCMSNCSITSICEKPQEVCVAVWRKNDENITLETVCHDPKLPYHDFILEDAASPKCIMKEKKKPGETFFMCSCSSDECNDNIIFSEEYNTSNPDIPPHVQKSVNNDMIVTDNNGAVKFPQLCKFCDVRFSTCDNQKSCMSNCSITSICEKPQEVCVAVWRKNDENITLETVCHDPKLPYHDFILEDAASPKCIMKEKKKPGETFFMCSCSSDECNDNIIFSEEYNTSNPD

Legend:
[1] = target: TGF-β1 (UniProt P01137)
[2] = target: TGF-β1 (UniProt P01137); experiment: cell-based or functional assay
[3] = target: TGF-β3 (UniProt P10600); experiment: cell-based or functional assay
[4] = target: TGF-β2 (UniProt P61812); experiment: cell-based or functional assay
TGF-β2, sequence (P61812 303-414 limits assumed): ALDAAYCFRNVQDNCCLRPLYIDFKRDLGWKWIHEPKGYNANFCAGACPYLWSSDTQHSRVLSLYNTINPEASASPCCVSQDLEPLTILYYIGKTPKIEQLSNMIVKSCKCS

TGF-β3, sequence (P10600 301-412 limits assumed): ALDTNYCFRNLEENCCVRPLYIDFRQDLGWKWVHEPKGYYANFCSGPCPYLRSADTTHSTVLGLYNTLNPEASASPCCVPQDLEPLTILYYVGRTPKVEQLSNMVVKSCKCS
TGF-β1, sequence (P01137 279-390 limits assumed): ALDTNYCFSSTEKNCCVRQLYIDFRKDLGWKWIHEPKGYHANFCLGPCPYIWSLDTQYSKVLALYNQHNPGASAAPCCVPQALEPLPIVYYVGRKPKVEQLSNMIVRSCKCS

| Binder | Fold Change Fc-T2m, A549 cell IL-11 release assay [table] [1] [fold] | Fold Change T22d35, A549 cell IL-11 release assay [table] [1] [fold] | IC50, A549 cell IL-11 release assay [table] [1] [pM] | Av IC50, TGF-β neutralization, Mv1Lu cell luciferase reporter assay [2] [pM] | IC50, A549 cell IL-11 release assay [2] [pM] | Av IC50, TGF-β neutralization, Mv1Lu cell luciferase reporter assay [3] [pM] | Av IC50, TGF-β neutralization, Mv1Lu cell luciferase reporter assay [4] [pM] |
| --- | --- | --- | --- | --- | --- | --- | --- |
| B1 | 10 | 101 | 5.73 | 0.001 | 5 | 0.001 | 96200 |
| B2 | – | – | – | 0.017 | – | 0.015 | 433000 |
| B3 | 9 | 94 | 6.17 | 1.45 | 5 | 0.026 | 108000 |
